US20150210766A1 (SAMSUNG ELECTRONICS, published 2015)

B1: MH3-05, anti-c-Met/anti-Her3 bispecific antibody in which the modified anti-Her3 scFv is fused at the c-terminal of L3-1Y-IgG2 (bispecific antibody, part only; not given: nothing needed for Her3 binding, not shown: another chain or arm of the molecule; small tags and cut ends)
heavy: EVQLVESGGGLVQPGGSLRLSCAASGFTFTDYYMSWVRQAPGKGLEWLGFIRNKANGYTTEYSASVKGRFTISRDNSKNTLYLQMNSLRAEDTAVYYCARDNWFAYWGQGTLVTVSSASTKGPSVFPLAPCSRSTSESTAALGCLVKDYFPEPVTVSWNSGALTSGVHTFPAVLQSSGLYSLSSVVTVPSSNFGTQTYTCNVDHKPSNTKVDKTVERKCCVECPPCPAPPVAGPSVFLFPPKPKDTLMISRTPEVTCVVVDVSHEDPEVQFNWYVDGVEVHNAKTKPREEQFNSTFRVVSVLTVVHQDWLNGKEYKCKVSNKGLPAPIEKTISKTKGQPREPQVYTLPPSREEMTKNQVSLTCLVKGFYPSDIAVEWESNGQPENNYKTTPPMLDSDGSFFLYSKLTVDKSRWQQGNVFSCSVMHEALHNHYTQKSLSLSPGKGGGGSGGGGSQVQLQESGGGLVKPGGSLRLSCAASGFTFSSYSMNWVRQAPGKGLEWVSSISSSSSYIYYADSVKGRFTISRDNAKNSLYLQMNSLRAEDTAVYYCAREDLTPFDYWGQGTLVTVSS
VL: LPVLTQPPSVSVAPGQTARITCGGDNIGSKSVHWYQQKPGQAPVLVVYDDSDRPSGIPERISGSNSGNTATLTISRVEAGDEADFYCQVWDNSVDLLFGGGTKLTVL
light: DIQMTQSPSSLSASVGDRVTITCKSSQSLLASGNQNNYLAWYQQKPGKAPKMLIIWASTRVSGVPSRFSGSGSGTDFTLTISSLQPEDFATYYCQQSYSRPYTFGQGTKVEIKRTVAAPSVFIFPPSDEQLKSGTASVVCLLNNFYPREAKVQWKVDNALQSGNSQESVTEQDSKDSTYSLSSTLTLSKADYEKHKVYACEVTHQGLSSPVTKSFNRGEC
modifications: In the real molecule the scFv-VL chain is joined covalently to the C-terminus of the heavy chain's VH (SEQ 115) through the undisclosed linker. It is written as a separate chain only because that linker has no letters.
B2: AbF46, mouse monoclonal antibody to c-Met (hybridoma KCLRF-BP-00220) (antibody, V domains shown)
VH: EVKLVESGGGLVQPGGSLRLSCATSGFTFTDYYMSWVRQPPGKALEWLGFIRNKANGYTTEYSASVKGRFTISRDNSQSILYLQMDTLRAEDSATYYCARDNWFAYWGQGTLVTVSA
VL: DILMTQSPSSLTVSAGEKVTMSCKSSQSLLASGNQNNYLAWHQQKPGRSPKMLIIWASTRVSGVPDRFIGSGSGTDFTLTINSVQAEDLAVYYCQQSYSAPLTFGAGTKLELK
notes: Tested as hybridoma culture in the screening ELISA; the single clone selected produces AbF46; also called mouse antibody AbF46

Legend:
Her3-Fc (R&D Systems) = Her3-Fc (R&D Systems) (UniProt P21860); assay: SPR, Biacore T100; bispecific antibody captured (about 90 to 120 RU) by human Fab binder on a CM5 chip, Her3-Fc injected at various concentrations
[1] = target: T1, human c-Met/Fc fusion protein (R&D Systems) (human, UniProt P08581 25-932); assay: ELISA, human c-Met/Fc fusion protein coated on the plate, hybridoma culture added
T1 construct: Bought reagent; also called human c-Met/Fc protein; not shown: Fc part of the bought fusion protein, not described
Description: Human c-Met/Fc fusion protein was seeded in an amount of […] (2 μg/mL)/well to microtiter plates and allowed to adhere to the surface of each well. The […] that remained unbound was removed by washing.
The hybridoma cell culture obtained in Reference Example 1.1.2 was added in an amount of […] to each well of the plates and incubated for 1 hour. The cells remaining unreacted were washed out with a sufficient amount of Tris-buffered saline and Tween 20 (TBST). Goat anti-mouse IgG-horseradish peroxidase (HRP) was added to the plates and incubated for 1 hour at room temperature. The plates were washed with a sufficient amount of TBST, followed by reacting the peroxidase with a substrate (OPD). Absorbance at 450 nm was measured on an ELISA reader.

Chain of Her3-Fc (R&D Systems) (P21860 20-643 limits assumed): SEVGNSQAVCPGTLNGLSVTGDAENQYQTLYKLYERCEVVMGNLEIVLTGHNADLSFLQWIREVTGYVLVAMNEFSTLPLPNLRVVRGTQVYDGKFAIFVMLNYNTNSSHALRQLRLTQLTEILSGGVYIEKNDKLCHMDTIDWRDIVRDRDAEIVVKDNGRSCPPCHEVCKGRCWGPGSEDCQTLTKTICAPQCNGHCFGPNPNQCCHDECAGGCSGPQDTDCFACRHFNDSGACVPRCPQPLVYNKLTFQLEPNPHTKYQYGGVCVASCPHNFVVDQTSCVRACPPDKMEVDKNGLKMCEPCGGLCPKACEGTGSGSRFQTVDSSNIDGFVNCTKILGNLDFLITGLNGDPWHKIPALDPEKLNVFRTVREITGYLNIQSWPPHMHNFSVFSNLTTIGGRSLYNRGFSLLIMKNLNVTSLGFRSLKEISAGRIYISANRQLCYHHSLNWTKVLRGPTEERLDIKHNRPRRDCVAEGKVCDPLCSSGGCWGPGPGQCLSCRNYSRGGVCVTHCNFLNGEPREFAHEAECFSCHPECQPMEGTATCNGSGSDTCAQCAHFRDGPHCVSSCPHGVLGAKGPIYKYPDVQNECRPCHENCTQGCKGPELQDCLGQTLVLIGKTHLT
T1 sequence (P08581 25-932 limits assumed): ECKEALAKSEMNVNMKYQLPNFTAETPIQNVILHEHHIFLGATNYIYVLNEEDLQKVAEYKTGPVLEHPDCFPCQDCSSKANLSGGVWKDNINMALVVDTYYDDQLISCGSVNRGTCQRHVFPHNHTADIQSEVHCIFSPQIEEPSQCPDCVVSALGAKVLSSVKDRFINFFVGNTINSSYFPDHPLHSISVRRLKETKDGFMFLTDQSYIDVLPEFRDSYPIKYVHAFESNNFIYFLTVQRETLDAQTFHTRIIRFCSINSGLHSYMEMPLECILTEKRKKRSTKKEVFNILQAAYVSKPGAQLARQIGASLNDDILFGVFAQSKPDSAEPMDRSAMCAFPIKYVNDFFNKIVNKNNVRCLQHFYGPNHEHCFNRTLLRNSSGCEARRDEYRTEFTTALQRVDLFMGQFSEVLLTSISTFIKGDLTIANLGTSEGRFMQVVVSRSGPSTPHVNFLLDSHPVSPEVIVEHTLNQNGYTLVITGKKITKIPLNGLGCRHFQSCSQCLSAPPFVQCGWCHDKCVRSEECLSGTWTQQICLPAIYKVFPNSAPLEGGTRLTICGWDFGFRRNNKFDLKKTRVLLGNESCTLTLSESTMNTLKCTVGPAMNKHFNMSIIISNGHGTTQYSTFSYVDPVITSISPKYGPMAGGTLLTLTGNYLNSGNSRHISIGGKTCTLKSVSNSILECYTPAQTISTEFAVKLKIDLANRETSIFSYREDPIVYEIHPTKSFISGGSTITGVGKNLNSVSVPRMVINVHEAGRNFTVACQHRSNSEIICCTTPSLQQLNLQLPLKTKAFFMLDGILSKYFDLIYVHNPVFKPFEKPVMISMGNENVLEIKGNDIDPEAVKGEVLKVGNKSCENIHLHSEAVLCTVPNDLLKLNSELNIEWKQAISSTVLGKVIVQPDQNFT

Binder | Kd (Her3-Fc (R&D Systems)) [nM] | binding result [1]
B1 | 0.55 | 
B2 |  | binds
